Data: article PMC10248797

Columns and labels:
[1] = molecular target: Lis1 with N-terminal HaloTag (UniProt P43034); experiment: pull-down; depletion of dynein from solution by Lis1 (0-600 nM) coupled to magnetic beads via its N-terminal HaloTag; SDS-PAGE densitometry of the supernatant; one-site fit with Bmax set to 1
[2] = molecular target: Full-length phosphomimetic Ndel1 (S198D; T219D; S231D; S242D) with N-terminal HaloTag and C-terminal 6X-His tag (UniProt Q9GZM8); experiment: pull-down; depletion of 5 nM dynein from solution by Ndel1 (0-600 nM) coupled to Magne HaloTag beads; 45 min; binding buffer 30 mM Hepes pH 7.4, 2 mM magnesium acetate, 1 mM EGTA, 10% glycerol, 1 mM DTT, 1 mg/ml casein, 0.1% NP-40, 1 mM ADP, 36 mM KCl; SDS-PAGE densitometry of the supernatant; one-site fit with Bmax set to 1
Sequence of Full-length phosphomimetic Ndel1 (S198D; T219D; S231D; S242D) with N-terminal HaloTag and C-terminal 6X-His tag (Q9GZM8 whole entry S198D/T219D/S231D/S242D): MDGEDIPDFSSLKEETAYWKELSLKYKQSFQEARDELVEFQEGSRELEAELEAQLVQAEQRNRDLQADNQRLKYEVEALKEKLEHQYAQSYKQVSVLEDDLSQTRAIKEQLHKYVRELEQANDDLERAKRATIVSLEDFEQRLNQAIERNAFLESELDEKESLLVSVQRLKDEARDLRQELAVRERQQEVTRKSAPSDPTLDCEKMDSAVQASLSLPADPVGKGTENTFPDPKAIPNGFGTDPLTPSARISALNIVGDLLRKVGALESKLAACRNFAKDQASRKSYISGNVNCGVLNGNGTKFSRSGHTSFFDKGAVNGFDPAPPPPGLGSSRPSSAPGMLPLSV

[3] = molecular target: Full-length Ndel1 with N-terminal HaloTag and C-terminal 6X-His tag (UniProt Q9GZM8); experiment: as above
Sequence of Full-length Ndel1 with N-terminal HaloTag and C-terminal 6X-His tag (Q9GZM8 whole entry): as the sequence (Q9GZM8 whole entry S198D/T219D/S231D/S242D) above, with D198S, D219T, D231S, D242S counted along it

[4] = molecular target: Ndel1 with the C-terminal coiled coil (256-291) deleted, N-terminal HaloTag and C-terminal 6X-His tag (UniProt Q9GZM8); experiment: as above
Sequence of Ndel1 with the C-terminal coiled coil (256-291) deleted, N-terminal HaloTag and C-terminal 6X-His tag (Q9GZM8 other isoform, or with tags, fused parts or gaps): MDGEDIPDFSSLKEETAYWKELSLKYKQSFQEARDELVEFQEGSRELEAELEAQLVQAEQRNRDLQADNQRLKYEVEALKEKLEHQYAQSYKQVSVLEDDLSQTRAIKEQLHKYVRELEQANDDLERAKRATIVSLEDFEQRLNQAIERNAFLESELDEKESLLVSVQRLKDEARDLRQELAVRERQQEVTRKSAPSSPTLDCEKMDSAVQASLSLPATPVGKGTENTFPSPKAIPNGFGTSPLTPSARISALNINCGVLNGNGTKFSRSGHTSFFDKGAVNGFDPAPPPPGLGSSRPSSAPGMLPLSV

[5] = molecular target: N-terminal coiled coil of Ndel1 (1-192) with N-terminal HaloTag and C-terminal 6X-His tag (UniProt Q9GZM8); experiment: as above
Sequence of N-terminal coiled coil of Ndel1 (1-192) with N-terminal HaloTag and C-terminal 6X-His tag (Q9GZM8 1-192): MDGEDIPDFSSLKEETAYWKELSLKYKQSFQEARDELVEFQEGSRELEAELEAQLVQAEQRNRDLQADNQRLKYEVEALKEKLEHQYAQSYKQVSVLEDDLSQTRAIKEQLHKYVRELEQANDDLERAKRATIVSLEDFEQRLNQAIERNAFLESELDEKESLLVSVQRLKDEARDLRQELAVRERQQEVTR

Sequence of Lis1 with N-terminal HaloTag (P43034 whole entry): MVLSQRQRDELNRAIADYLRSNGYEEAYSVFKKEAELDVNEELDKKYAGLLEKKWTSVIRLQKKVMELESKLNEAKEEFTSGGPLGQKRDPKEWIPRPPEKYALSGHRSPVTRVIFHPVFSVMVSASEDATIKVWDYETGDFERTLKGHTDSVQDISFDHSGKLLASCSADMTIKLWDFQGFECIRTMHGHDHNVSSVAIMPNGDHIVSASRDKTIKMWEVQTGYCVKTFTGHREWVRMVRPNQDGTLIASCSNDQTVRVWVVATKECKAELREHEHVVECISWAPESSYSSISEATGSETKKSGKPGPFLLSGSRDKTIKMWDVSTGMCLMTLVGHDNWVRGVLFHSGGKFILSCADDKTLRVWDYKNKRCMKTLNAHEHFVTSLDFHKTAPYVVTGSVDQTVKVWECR

Kd [1]: 101 nM
Kd [2]: 15.8 nM
Kd [3]: 32.8 nM
Kd [4]: 55.1 nM
Kd [5]: 79.3 nM
Substance: SNAP-tagged, recombinant full-length human cytoplasmic dynein-1 with all associated accessory chains (from UniProt Q14204 1-4646; O43237 1-492; P63172 1-113; Q9NP97 1-96; P63167 1-89) (complex)
